Test results: patent US11884710B2, “Peptide compounds and methods of use in wound healing” (priority 2013, dated 2024)

Columns and labels:
HCEC monolayers = experiment: In vitro scratch assay of HCEC monolayers; type: cell-based, human
Protocol: (A) HCECs were grown to confluency and scratched using a 10 μl pipette tip. Scratched HCEC monolayers were treated with HB-EGF (250 ng/ml) or rCAP37 (25-2000 ng/ml), or were left untreated in basal Keratinocyte Serum Free Medium (KSFM). Wound closure was monitored at 0, 18, 24, and 48 hours utilizing a camera-equipped inverted microscope. The histogram represents data acquired at 48 hours, and the values are the mean±SEM of the percentage of wound closure. The data are representative of at least 4 independent experiments. The percentage of wound closure in treated monolayers was compared to untreated controls by one-way analysis of variance (ANOVA) followed by Dunnett's multiple comparison test, **P<0.01, *P<0.05. (B) Representative images of scratched monolayers treated with buffer control, HB-EGF, and rCAP37 (at 25, 100, and 250 ng/ml) are shown for each time point. Images were taken at 20× objective.
In vitro model of wound healing: An in vitro scratch assay was used in order to determine the ability of rCAP37 to facilitate corneal wound healing. Human corneal epithelial cells were cultured as described above until they reached a confluent monolayer. Each monolayer was scratched using a 10 μl pipette tip to create two perpendicular lines. Monolayers were treated with heparin binding-epidermal growth factor (HB-EGF, 250 ng/ml; Becton Dickinson), rCAP37 (25-2000 ng/ml), or basal KSFM (Gibco). Wound closure was monitored at 0, 18, 24, and 48 hours utilizing a camera-equipped inverted microscope (TE2000-E; Nikon, Melville, N.Y.). Time-lapse images of in vitro wound closure were obtained using a camera-equipped inverted microscope (TE2000-E; Nikon) from […]. HCEC monolayers were treated with HB-EGF, rCAP37, and basal KSFM as described above. The width of each scratch was quantitated using ImageJ software (US National Institutes of Health, Bethesda, Md.). Results are presented as the percentage of wound closure.

PKCδ = PKCδ siRNA knockdown and CAP37-induced corneal wound healing in vivo; design: species or system mouse; settings: CAP37 250 ng/ml
Protocol: (A) siRNA directed against PKCδ or scrambled siRNA was injected into the mouse conjunctiva. The mouse corneal epithelium was removed with the AlgerBrush II. Corneal abrasions were treated at 0 and 16 hours with rCAP37 (250 ng/ml), or were left untreated (saline vehicle control). Wound healing was monitored at 0, 16, and 24 hours using fluorescein staining. Data are represented as the percentage of wound closure and are expressed as mean±SEM. The data are representative of at least 9 mice per group. *P<0.05 by unpaired t-test as compared to vehicle (normal saline) treated controls. The efficiency of the PKCδ knockdown in each cornea was confirmed by Western blot analysis 24 hours post-injection and determined in comparison to the scrambled siRNA-injected corneas. Data are representative of 22 experimental samples and are expressed as mean±SEM (***P<0.0005 by unpaired t-test). […]
siRNA transfection and gene silencing: Stealth RNAi™ (10 μM, Ambion®, Grand Island, N.Y.) directed against PKCδ or Stealth RNAi™ siRNA Negative Control Hi GC (10 μM, Ambion®) was delivered into the mouse conjunctiva through a 5 μl subconjunctival injection using a 33-gauge needle (Hamilton®, Reno, Nev.). […] Wound closure was quantitated at 16 and 24 hours as described. […]
Protein (20 μg) from each sample of corneal homogenate was analyzed by electrophoresis on a 10% SDS-PAGE gel. […]

B1: CAP37: cationic antimicrobial protein of Mr 37 kDa; recombinant CAP37 produced in human embryonic kidney (HEK) 293 cells (protein)
chain: IVGGRKARPRQFPFLASIQNQGRHFCGGALIHARFVMTAASCFQSQNPGVSTVVLGAYDLRRRERQSRQTFSISSMSENGYDPQQNLNDLMLLQLDREANLTSSVTILPLPLQNATVEAGTRCQVAGWGSQRSGGRLSRFPRFVNVTVTPEDQCRPNNVCTGVLTRRGGICNGDGGTPLVCEGLAHGVASFSLGPCGRGPDFFTRVALFRDWIDGVLNNPGP
HCEC monolayers; CAP37 250 ng/ml, at 18 hours
  percentage wound closure: ~71%
HCEC monolayers; CAP37 500 ng/ml
  percentage wound closure: approximately 62%
HCEC monolayers; HB-EGF 250 ng/ml, CAP37 250 ng/ml
  time to complete closure of scratch wounds: 24 to 48 h
PKCδ; corneas transfected with PKCδ siRNA, 16 or 24 hours
  wound healing in response to CAP37, in words: no significant increase in wound healing
PKCδ; corneas transfected with scrambled siRNA, 24 hours
  wound closure after CAP37, in words: expected increase in wound closure
